Laboratory results taken from the nanobody polyreactivity screen of Harvey et al. (2022).

Assay: yeast display, Sf9 membrane polyspecificity reagent, FACS + sequencing; frameworks hold sequencing errors
How it was run: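 After 36–48 hours of galactose induction, yeast (Saccharomyces cerevisiae BJ5465) displaying a synthetic nanobody library were stained at 4 °C for 1 hour with 10% biotinylated, detergent-solubilized Sf9 membrane reagent. Streptavidin microbeads enriched the stained cells before FACS sorting into low and high (top ~1%) gates on anti-HA and streptavidin fluorescence. Each clone's polyreactivity label reflects its gate of origin.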

Row | Sequence | polyreactivity (PSR sort gate)
1 | QVQHVESGGGLVQAGGSLRLSCAASGGTFSYNTMGWSRQAPGKERELVAVITFSGGSTYYADSVKGRFTISRDNAKNTVYLQMNSLKPEDTAVYYCNARSYPRWLRYDYWGQGTQVTVSS | low polyreactivity
2 | QVQLVESGGGLVHAGGSLRLSCAASGRTFKVYAMGWYRQAPGKERELVASISRSGGSTYYSDSVKGRFTISRDIAKNTVFLQRNSLKPEDTAVYYCAADFCFYGSRVWEYDYWGQGTQVTVSS | high polyreactivity
3 | QVQLVESGGGLVQAGGSLRLSCAASGSTFSPNAMGWYRQATGKERELVAAITYRGANTYYADSVKGRFTISRDNAMITVYFQLNSLKPEDTAVYYCAPEYAYHHVGFGYWRQGTQVTVSS | low polyreactivity
4 | QVQLVESGGGLVQAGGSLRLSCAASGRIFYHNAMGWYRQAPGKERELVAAITWSGGSTYYADSVKGRFTISRDNAKNTVYLQMNSLKPEDTAVYYCAAYFYGRSYGYDYWGQGTQVTVSS | high polyreactivity
5 | QVQLVESGGGLVQAGGSLRLSCAASGSIIYKYAMGWYRQAPGKERELVAAINSGGRTYYADSVKGRFTISRDNAKNTVYLQMNSLKPEDTAVYYCNAGTYYPGRYDYWGQGTQVTVSS | low polyreactivity
6 | QVQLVESGGGLVQAGGSLRLSCAASGFTFTYYDMGWYRQAPGKERELVAAISRSGGRTYYADSVKGRFTISRDNAKNTVYLQMNSLKPEDTAVYYCAARRVDTRVHVRYRYYYWGQGTQVTVSS | high polyreactivity
7 | QVQHVESGGGLVQAGGSLRLSCAASGSIFRFYAMGWYRQAPGKERELVAAISWSGGSTYYADSVKGRFTISRDNAKNTVYLQMNSLKPEDTAVYYCNTRYYGGFDSWGQGTQVTVSS | high polyreactivity
8 | QVQLVESGGGLVQAGGSLRLSCAASGSTFWYAMGWYRQAPGKERELVAAITARGGRTYYADSVKGRFTISRDNAKNTVYLQMNSLKPEDTAVYYCARLSYAGGQWIIGKYDYWGQGTQVTVSS | high polyreactivity
9 | QVQLVESGGGLVQAGGSLRLSCAPSGSIFPSYAMGWYRQAPGKERELVAAISRSAGSTYYADSVKGRFTISRDNAKNTVYLQMNSLKPEDPAVYYCAADGYSSRYRYDYWGQGTQVTVSS | low polyreactivity
10 | QVQLVESGGGLVQAGGSLRLSCAASGIIFGWYAMGWYRPAPGKERELVAAISSGGRTNYADSVKGRFTISRDNAKNTVYLQMNSLKPEDTAVYYCAARLWENTGYYYWGQGTQVTVSS | high polyreactivity
11 | QVQLVESGGGLVQAGGSLRLSCAASGFIFYHYAMGWYRQAPGKERELVAAISRRTGSTYYADSVKGRFTISRDNAKNTDYLQMNSLKPEDTSVYYCAADAYFIYSRYWYDYWGQGTQVTVSS | high polyreactivity
12 | QVQLVESVGGLVQAGGSLRLSCAASGLTFGSYAMGWYRQAPGTDRELVAGINQSGGSTYYADSVKGRFTISRDNAKNTVSFQMNSLNPEDTAVYYCNAEAWVSQDWWQWVAYVYWGQGTQVTVSS | high polyreactivity
13 | QVQLVESGGVLVQAGASLRLSCAASGFTFGFYGMGWYRQAPGKERELVARITWRSGSTYYADSVKGRFTISRDNAKNTVYLQMNSLKPEDTAVYYCNKVPSYDFLGMDYWGLGTQVTVSS | low polyreactivity
14 | QVQLVESGGGLVQAGGSLRLSCAASGRTFSRYAMGWYRQAPGKERELVAAITSGGSTYYADSVKGRFTISRDNAKNTVYLQMNSLKPEDTAVYYCAAVWRYGYSDGGYWGLGTQVTVSS | high polyreactivity
15 | QVHLVESWGGLVQAGGSLRLSCAASGSTFSDYAMGWYRQAPGKERELVAGITGGGGTYYADSVKGRFTISRDNAKNTVSLHMNSLTPEDTARYYCAAGRRHGFGYWGQGTQVTVSS | low polyreactivity
16 | QVQLVESGGGLVQAGGSLRLSCAASGSTFDYNTMGWYRQAPGKERELVAAINNSGGSTYYADSVKGRFTISRDNAKNTVYLQMNSLKPEDTAVYYCAAVSYRRHFGPYNYWGQGTQVTVSS | low polyreactivity
17 | QVQLVESGGGLVQAGGSLRLSCAASGRILGDYAMGWYRQAPGKEREFVAAIDYNGGSTNYADSVMGRFTISRDNAKNTVYLQMNSLKPEDTAVYYCAKTDGFYRGYGYWGQGTQVTVSS | low polyreactivity
18 | QVQLVESGGGLVQAGGSLSLSCAASGFTLRFYTMGWYRQAPGKERELVADITWSGASTYYADSVKGRFTISRDNAKNTVYLQMKSLKPEDTAVYYCNAEDRYWSYSVGAPYNYWGQGTQVTVSS | low polyreactivity
19 | QVQLVESGGGLVQAGGSLRLICAASGNTFYGYAMGWYRQAPGKERELVASITLSGDSTYYADSVKGRFTISRDNAKNTVYVQMNSLKPEDTAVYYCAGVYTYPLGYYHDTYDYWGQGTQVTVSS | low polyreactivity
20 | QVHLVESGAGLVQAGGSLRLSCPASGSIFFLYPMGWYRQAPGKESELVAAITWRVGSTYYADSVKGRFTISRDNAKNTVYLQMNSLKPEDTAVYYCAAYFLGFQVRYDYWGQGTQVTVSS | high polyreactivity
21 | QVQLVESGGGLVQAGGSLRLSSAASGRIFTYYAMGWYRQAPGKVREVVAAISFRGASTYYADSVKGRVTISRDYAQNTVYLQMHSLKPEDTAVYYGAAERIARPTIDYWGQGTQVTVSS | low polyreactivity
22 | QDQLVESGGGIVQAGGSLRLSCAASGRTFVAYAMGLYRQAPGKEREFVARISSGGSTYYADSVKGRFTISRDNAKNTVYLQMNSLKPEDTAVYYCAADRGPYFVPWRRYDYWGQGTQVTVSS | low polyreactivity

Row | Sequence | polyreactivity (PSR sort gate)
23 | QVQLVESGGGLVQAGGSLRLSCAASGFIFDHNARGWYRQAPGKERELVAAITWRGDSTYYADSVKGRFTISRDNAKNTVYLQMNSLKPEDTAVYYCNADAILVYYGKLDYWGQGTQVTVSS | low polyreactivity
24 | QVQLVESGGGLVQAGGSLRLSCAASGFTLRSNAMGWYRQAPGKERELVASITDGTSTNYADSVKGRFTISRDNAKNTVYLQMNSLKPEDTAVYYCATRHPARRDYWGQGTQVTVSS | low polyreactivity
25 | QVQLEESGGGLVQAGGSLRLSCAASGITFVTYAMGWYRQAPGKERELVAAISRSGGRTYYADSVKGRFTISRDNAKNTVYLQMNSLKPDDTAVYYCAAERKNKYDYWVQGTQVTVSS | high polyreactivity
26 | QVQLVESGGGLVQAGGSLRLSCAASGSIFRWNAMGWYRQAPGKERDLVDVINSSVGSTYYADSVKGRFTISRDNAKNTVYLQMYSLKPEDTAVYYCAADVELGWGNSVAYEYWGQGTQVTVSS | low polyreactivity
27 | QVQLVESGGGLVQAGGSLRLSCAASGSIFNRYAMGWYRQAPGKERELVASISWRTASTYYADSVKGRFTISRDNAKNTVYLQMNSLKPEDTAVYYCAAKILGRPGYYYWGQGTQVTVSS | high polyreactivity
28 | QVQLVESGGGLVQAGGSLRLSCAASGRIFSGYAMGWYRQAPGKESELVAAITSRSGSTYYADSVKARFTISRDNAKNTVYLQMNSLKPEDTAVYYCDAEYVRFYWYTSDYWGQGTQVTVSS | low polyreactivity
29 | QVQLVESGGGLVQAGGSLRLSCAATGSIFVLYAMGWYRQAPGKERALVAAISKSTGSTYYADSVKGRFTISRDNAKNTVYLQMNSLKPEDTAVYYCAARGRQYRYYDLDYWGQGTQVTVSS | low polyreactivity
30 | QVQLVESGGGLVQAGGSLRLSCADSGIIFTRYAMGWYRQAPGKERELVAVITQSGGRTYYADSVKGRFTISRDNAKNTVYLQLNSLKPEDTAVYYCAAAYKPSYFTRAGDYWGQGTQVTVSS | high polyreactivity
31 | QVQLVESGGGLVQAGGSLRLSCAASGSIFRWYAMGWYRQAPGKERELVAVISYGGGSTYYADSVKGRFTISRDNAKNTVYLQMNSLKPEDTAVYYCAADPTWRYYYHYTYYYWGQGTQVTVSS | high polyreactivity
32 | QVQRVESGGGLVQAGGSLLLSCAPSGSIFSDNSMGWYRQAPGKERELVAAITSGGDTKYADSVKGRFTISRDNAKNTVYLQMNSLKPEDTAFYYCAAGIRYQASFDSWGQGTQVTVSS | low polyreactivity
33 | QVQLVESGGGLVQAGGSLRLSCAASGSTSYYNAMGWYRQAPGKERELVAAISYSGGRTYYADSVKGRFTISRDNAKNTVYLQMNSLKPEDTAVYYCAKTFRGQPYLRYRYYYWGQGTQVTVSS | high polyreactivity
34 | QVQLVESGGGLVQAGGSLRLSCAASGSIFDKNAMGWYRQAPGKERELVAAITSSGGDTYYADSVKGRFTISRDNAKNTVYLQMYSLKPEDTAVYYCAALGGRYRASTYGYWGQGTQVTVSS | high polyreactivity
35 | QVQLVESGGGLVQAGGSIRLSCAASGSIFGGYDMGWYRQAPGKERELVSAIDADAGSTYYADSVKGRFTISRDNAKNTVYLQMYSLKPEDTSDDYCGAESYPYFITLYVFTLYGYWGQGTQVTVAS | low polyreactivity
36 | QVQLVESGGGLVQAGGSLRLSCAASGFIFSIYAMGWYRQAPGKERELVAAISKSGGRTYYADSVKGRFTISRDNAKNTVYLQMNSLKPEDTAVYYCAVDSYYKYDYWGQGTQVTVSS | high polyreactivity
37 | QVQLVESGGGLVQAGGSLRLSCAASGRIFRYYAMGWYRQAPGKERELVAAITWRGDSTYYADSVKGRFTISRDNAKNTVYLQMNSLKPEDTAVYYCNKRWTDKYDSWGQGTQVTVSS | high polyreactivity
38 | QVQLVESGGGLVQAGGSLRLSCAASGLTFVWYGMGWYRQAPGKERELVAAITRGGSTYYADSVKGRFTISRDNAKNTVYLQMNSLKPEDTAVYYCAARYKYTGYDYWGQGTQVTVSS | high polyreactivity
39 | QVQLVESGGGLVQAGGSLRLSCAASGSTFGGYVMGWYRQAPGKERELVAAISGNGASTTYADSVKGRFTISRDNAKSTFYLQLNSVKPEDTAVYYCGAMYRKAHSDYDYWGQGTQVTVSS | low polyreactivity
40 | QVQHVESGGGLVQAGGSLRLSCAASGRIFSANAMGWYRQAPGKERELVAAISGSGGSTFYADSVKGRFTISRDNAKNTVYLQMNSLKPEDTAVYYCAARRYRSGYYSFYYWGQGTQVTVSS | high polyreactivity
41 | QVQLVESGGGLVQAGGSLRLSCAASGFIFRYNAMGWYRQAPGKERELVARISSGGSTNYADSVKGRFTISRDNAKNTVYLQMNSLIPEDTAVYYCAVKQYWYIWSGYGYDYWGQGTQVTVSS | high polyreactivity
42 | QVQLVESGGGLVQAGGCLRLSCAASGSTFLRNTMGWYRLAPGKERELVATISAGASNTYYADSVKGRFTISRDNAKNTDYLQKNSLTPEATAVYYCAARLLTWYYGIRYYWGQGTQVTVSS | high polyreactivity
43 | QVQLVESGGGLVQAGGSLRLSCAASGSTFYDYVMGWYRQAPGKERELVAAISRTGASTYYADSVKGRFTISRDNAKNTVYLQMNSLKPEDTAVYYCAADSDTVRYYYWGQGTQVTVSS | high polyreactivity
